B1: Calcyon:GAL4 AD fusion protein (encoded by pACTCalcyon) (other, not shown: large carriers)
chain: MVKLGCSFSGKPGKDPGDQDGAAMDSVPLISPLDISQLQPPLPDQVVIKTQTEYQLSSPDQQNFPDLEGQRLNCSHPEEGRRLPTARMIAFAMALLGCVLIMYKAIWYDQFTCPDGFLLRHKICTPLTLEMYYTEMDPERHRSILAAIGAYPLSRKHGTETPAAWGDGYRAAKEERKGPTQAGAAAAATEPPGKPSAKAEKEAARKAAGSAAPPPAQ
notes: Library clone from a human brain cDNA:GAL4 AD library; The 936 bp insert holds the whole 217 residue ORF; also called pACTP24; clone K37
B2: D1 receptor:GAL4 binding domain fusion protein pGBTD1421-435 (other, yeast;human, UniProt P04386 1-147, looked up)
chain: MKLLSSIEQACDICRLKKLKCSKEKPKCAKCLKNNWECRYSPKTKRSPLTRAHLTEVESRLERLEQLFLLIFPREDLDMILKMDSLQDIKALLTGLFVQDNVNKDAVTDRLASVETDMPLTLRQHRISATSSSEESSNKGQRQLTVSSVILDYDTDVSLEKI
B3: GAL4 Activation Domain (AD) protein encoded on the vector pGAD424 (other, yeast, UniProt P04386 768-881, looked up)
chain: ANFNQSGNIADSSLSFTFTNSSNGPNLITTQTNSQALSQPIASSNVHDNFMNNEITASKIDDGNNSKPLSPGWTDQTAYNAFGITTGMFNTTTMDDVYNYLFDDEDTPPNPKKE

Experiments:
[1] = target: T1, D1/GAL4 BD fusion protein (hD1 receptor residues 365-446 fused to the GAL4 DNA binding domain, pGBTD1) (yeast; human, UniProt P04386 1-147; P21728 365-446); experiment: yeast two-hybrid
T1 construct: D1 segment is at the 3' end of the GAL4 BD open reading frame; also called pGBTD1365-446; D1:GAL4 fusion protein

[2] = target: B1; experiment: yeast two-hybrid
[3] = target: T1, D1/GAL4 BD fusion protein (hD1 receptor …); experiment: yeast two-hybrid, X-Gal colony filter assay
Description: A nitrocellulose filter was placed on the plate to transfer the colonies to the filter. Cells were permeabilized by freezing in liquid nitrogen, and then soaked in buffer containing X-Gal.

B1
binding result [1]: binds

B2
binding result [2]: binds

B3
binding result [3]: no binding

Reference: US20030073818A1 (MEDICAL COLLEGE OF GEORGIA RESEARCH INSTITUTE, published 2003)
